Key:
Assay in all cases: BLI
H4K8ac [1] = target: T1, H4K8ac (Saccharomyces cerevisiae, acetyl-Lys8 (mature numbering; K9 in UniProt); biotinylated. Limits 1-21 from the pull-down methods; the BLItz peptide is 1-20. Peptide species not given; a commercial vertebrate peptide would have …)
H4K12ac [2] = target: T2, H4K12ac (Saccharomyces cerevisiae, acetyl-Lys12 (mature numbering; K13 in UniProt); biotinylated. Limits 1-21 from the pull-down methods; the BLItz peptide is 1-20. Peptide species not given; a commercial vertebrate peptide would …)
H4K5ac [3] = target: T3, H4K5ac (Saccharomyces cerevisiae, acetyl-Lys5 (mature numbering; K6 in UniProt); biotinylated. Limits 1-21 from the pull-down methods; the BLItz peptide is 1-20. Peptide species not given; a commercial vertebrate peptide would have …)
H4K8ac [4] = target: T1, H4K8ac; remark: listed apart in the source
H4K12ac [5] = target: T2, H4K12ac; remark: listed apart in the source
H4K5ac [6] = target: T3, H4K5ac; remark: listed apart in the source

T1 sequence (main, as listed by the source): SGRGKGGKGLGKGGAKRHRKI

koff (H4K8ac [1]): 0.00237 s⁻¹ | koff (H4K12ac [2]): 0.00302 s⁻¹ | koff (H4K5ac [3]): 0.00317 s⁻¹ | Kd (H4K8ac [4]): 19.6 nM | Kd (H4K12ac [5]): 23.3 nM | Kd (H4K5ac [6]): 20.1 nM
B1: Dot1p (disruptor of telomeric silencing-1), MBP tag removed (enzyme)
chain: MGGQESISNNNSDSFIMSSPNLDSQESSISPIDEKKGTDMQTKSLSSYSKGTLLSKQVQNLLEEANKYDPIYGSSLPRGFLRDRNTKGKDNGLVPLVEKVIPPIHKKTNNRNTRKKSSTTTKKDVKKPKAAKVKGKNGRTNHKHTPISKQEIDTAREKKPLKKGRANKKNDRDSPSSTFVDWNGPCLRLQYPLFDIEYLRSHEIYSGTPIQSISLRTNSPQPTSLTSDNDTSSVTTAKLQSILFSNYMEEYKVDFKRSTAIYNPMSEIGKLIEYSCLVFLPSPYAEQLKETILPDLNASFDNSDTKGFVNAINLYNKMIREIPRQRIIDHLETIDKIPRSFIHDFLHIVYTRSIHPQANKLKHYKAFSNYVYGELLPNFLSDVYQQCQLKKGDTFMDLGSGVGNCVVQAALECGCALSFGCEIMDDASDLTILQYEELKKRCKLYGMRLNNVEFSLKKSFVDNNRVAELIPQCDVILVNNFLFDEDLNKKVEKILQTAKVGCKIISLKSLRSLTYQINFYNVENIFNRLKVQRYDLKEDSVSWTHSGGEYYISTVMEDVDESLFSPAARGRRNRGTPVKYTR

— article PMC5770421 (2018)
